Measured values published in patent publication US10495630B2, “Methods for the determination of compounds or compositions for the treatment of lipofuscin related diseases and compounds or compositions” (KATAIRO GMBH, priority 2014, dated 2019).

System: Abca4 (−/−) mice
Assay: A2E concentration in eyes of Abca4 (−/−) mice after intravitreal injection, HPLCMSMS
Assay type: in vivo
Conditions: redox active and chelating protein; intravitreal 2 μl of 20 mg/ml; one week after injection
Text: […] […] The left eye was not treated and maintained as a control. Untreated eyes of age-matched mice lacking the Abca4 transporter were an additional control.
The concentration in each treated eye was then expressed as a percentage of the average concentration in all untreated eyes in the mice of the same age.
The left eye was not treated and maintained as a control. Untreated eyes of age-matched mice lacking the Abca4 transporter were an additional control.
The left eye was not treated and maintained as a control. Untreated eyes of age-matched mice lacking the Abca4 transporter were an additional control. […] Tryptophan is capable of absorbing and re-radiating light energy, as is riboflavin.
Water solutions were diluted 1:3 with acetonitrile and then sealed in vials for injection. 6 μL of the water acetonitrile solutions were injected onto a 2×50 mm Phenyl derived HPLC column (3 μm) and eluted with a gradient from 20% acetonitrile to 100% acetonitrile over 4 minutes at a flow rate of 500 μL/minute.

B1: Lactoferrin: protein capable of binding iron with high affinity (protein, UniProt P02788 20-710, looked up)
Lactotransferrin: GRRRSVQWCAVSQPEATKCFQWQRNMRKVRGPPVSCIKRDSPIQCIQAIAENRADAVTLDGGFIYEAGLAPYKLRPVAAEVYGTERQPRTHYYAVAVVKKGGSFQLNELQGLKSCHTGLRRTAGWNVPIGTLRPFLNWTGPPEPIEAAVARFFSASCVPGADKGQFPNLCRLCAGTGENKCAFSSQEPYFSYSGAFKCLRDGAGDVAFIRESTVFEDLSDEAERDEYELLCPDNTRKPVDKFKDCHLARVPSHAVVARSVNGKEDAIWNLLRQAQEKFGKDKSPKFQLFGSPSGQKDLLFKDSAIGFSRVPPRIDSGLYLGSGYFTAIQNLRKSEEEVAARRARVVWCAVGEQELRKCNQWSGLSEGSVTCSSASTTEDCIALVLKGEADAMSLDGGYVYTAGKCGLVPVLAENYKSQQSSDPDPNCVDRPVEGYLAVAVVRRSDTSLTWNSVKGKKSCHTAVDRTAGWNIPMGLLFNQTGSCKFDEYFSQSCAPGSDPRSNLCALCIGDEQGENKCVPNSNERYYGYTGAFRCLAENAGDVAFVKDVTVLQNTDGNNNEAWAKDLKLADFALLCLDGKRKPVTEARSCHLAMAPNHAVVSRMDKVERLKQVLLHQQAKFGRNGSDCPDKFCLFQSETKNLLFNDNTECLARLHGKTTYEKYLGPQYVAGITNLKKCSTSPLLEACEFLRK
In the case of B1, the “% of A2E relative to age matched untreated” value is reported as 63% and the “Concentration A2E (μM) in the treated eye” value is reported as 20 µM.
